How the values were obtained:
[1] = target: BaiE (bile acid 7α-dehydratase) from Clostridium scindens ATCC35704 (Clostridium scindens ATCC35704) (UniProt P19412); assay: SEC
[2] = target: BaiE (bile acid 7α-dehydratase) from Clostridium hylemonae DSM15053 (Clostridium hylemonae DSM15053); assay: SEC
[3] = target: BaiE (bile acid 7α-dehydratase) from Clostridium hiranonis DSM13275 (Clostridium hiranonis DSM13275); assay: SEC
purified protein [4] = substrate: C[C@H](CCC(=O)O)[C@H]1CC[C@H]2[C@@H]3[C@H](O)CC4=CC(=O)CC[C@]4(C)[C@H]3CC[C@]12C; assay: purified protein; assay type: biochemical, [Clostridium] hylemonae; conditions: 20 mM Tris-HCl pH 7.3, 25 °C
purified protein [5] = substrate: C[C@H](CCC(=O)SCCNC(=O)CCNC(=O)[C@H](O)C(C)(C)COP(=O)(O)OP(=O)(O)OC[C@H]1O[C@@H](n2cnc3c(N)ncnc32)[C@H](O)[C@@H]1OP(=O)(O)O)[C@H]1CC[C@H]2[C@@H]3[C@H](O)CC4=CC(=O)CC[C@]4(C)[C@H]3CC[C@]12C; assay: purified protein; assay type: biochemical, [Clostridium] hylemonae; conditions: 20 mM Tris-HCl pH 7.3, 25 °C
purified protein [6] = substrate: C[C@H](CCC(=O)O)[C@H]1CC[C@H]2[C@@H]3[C@H](O)CC4=CC(=O)CC[C@]4(C)[C@H]3CC[C@]12C; assay: purified protein; assay type: biochemical, Peptacetobacter hiranonis; conditions: 20 mM Tris-HCl pH 7.3, 25 °C
purified protein [7] = substrate: C[C@H](CCC(=O)SCCNC(=O)CCNC(=O)[C@H](O)C(C)(C)COP(=O)(O)OP(=O)(O)OC[C@H]1O[C@@H](n2cnc3c(N)ncnc32)[C@H](O)[C@@H]1OP(=O)(O)O)[C@H]1CC[C@H]2[C@@H]3[C@H](O)CC4=CC(=O)CC[C@]4(C)[C@H]3CC[C@]12C; assay: purified protein; assay type: biochemical, Peptacetobacter hiranonis; conditions: 20 mM Tris-HCl pH 7.3, 25 °C
purified protein [8] = substrate: C[C@H](CCC(=O)O)[C@H]1CC[C@H]2[C@@H]3[C@H](O)CC4=CC(=O)CC[C@]4(C)[C@H]3CC[C@]12C; assay: purified protein; assay type: biochemical, [Clostridium] scindens; conditions: 20 mM Tris-HCl pH 7.3, 25 °C
purified protein [9] = substrate: C[C@H](CCC(=O)SCCNC(=O)CCNC(=O)[C@H](O)C(C)(C)COP(=O)(O)OP(=O)(O)OC[C@H]1O[C@@H](n2cnc3c(N)ncnc32)[C@H](O)[C@@H]1OP(=O)(O)O)[C@H]1CC[C@H]2[C@@H]3[C@H](O)CC4=CC(=O)CC[C@]4(C)[C@H]3CC[C@]12C; assay: purified protein; assay type: biochemical, [Clostridium] scindens; conditions: 20 mM Tris-HCl pH 7.3, 25 °C
SEC = target: the molecule itself; assay: SEC

Question: Which stoichiometry N [1] does the source give for “BaiE (bile acid 7α-dehydratase) from Clostridium scindens ATCC35704 (from UniProt P19412 1-166) (enzyme)” here?
Answer: Its stoichiometry N is 3.

Question: For “BaiE (bile acid 7α-dehydratase) from Clostridium hylemonae DSM15053 (enzyme)”, which stoichiometry N [2] is on record?
Answer: The stoichiometry N was 3.

Question: “BaiE (bile acid 7α-dehydratase) from Clostridium hiranonis DSM13275 (enzyme)” was tested. Which stoichiometry N [3] did it give?
Answer: Its stoichiometry N is 3.

B1: BaiE_15053 ([Clostridium] hylemonae DSM 15053) (protein)
chain: MSIEERLEALEKEIQKMKDIEEIKKLKGQYFRCLDGKFWDELETTLSPNIVTSYSNGKLVFHGPKEVTDYFKKAMPREEISMHMGHTPEITIDSETTATGRWYLEDKLIFTEESKYAGSGVNGGAFYTDKYEKVDGKWYILETGYLRVYEEHFMRDPKIKITMNMHKTK
Question: Which results are given for B1?
Answer: Km (purified protein [4]): 21.0 (2.0) μM; kcat (purified protein [4]): 18.6 s⁻¹; kcat/Km (purified protein [4]): 900000 M⁻¹ s⁻¹; Km (purified protein [5]): 11.4 (1.9) μM; kcat (purified protein [5]): 12.6 s⁻¹; kcat/Km (purified protein [5]): 1.1e+06 M⁻¹ s⁻¹

B2: BaiE_13275 (Peptacetobacter hiranonis DSM 13275) (protein)
chain: MTLEARIEALEKEIQRLNDIEAIKQLKAKYFRCLDGKLWDELETTLSPNIETSYSDGKLVFHSPKEVTEYLAAAMPKEEISMHMGHTPEITIDSENTATGRWYLEDNLIFTDGKYKNVGINGGAFYTDKYEKIDGQWYIKETGYVRIFEEHFMRDPKIHITSNMHKEK
Question: Which Km (purified protein [6]) does the source give for B2 here?
Answer: The Km was 25.0 (1.8) μM.

Question: What about the kcat (purified protein [6]) of the same molecule?
Answer: The kcat was 4.4 s⁻¹.

Question: What about the kcat/Km (purified protein [6]) of the same molecule?
Answer: The kcat/Km was 200000 M⁻¹ s⁻¹.

Question: And the Km (purified protein [7])?
Answer: The Km was 208.0 (40.0) μM.

Question: What about the kcat (purified protein [7]) of the same molecule?
Answer: Its kcat is 22.2 s⁻¹.

Question: What about the kcat/Km (purified protein [7]) of the same molecule?
Answer: Its kcat/Km is 100000 M⁻¹ s⁻¹.

B3: BaiE_35704 ([Clostridium] scindens ATCC 35704) (protein)
chain: MTLEERVEALEKELQKMKDIEAIKELKGKYFRCLDGKMWDELETTLSPNIVTSYSNGKLVFHSPKEVTDYLKSTMPKEEISMHMGHTPEITIDSETTATGRWYLEDKLIFTDGKYKDVGINGGAFYTDKYEKIEGQWYILETGYVRIYEEHFMRDPKIHITMNMHK
Question: Which results are given for B3?
Answer: Km (purified protein [8]): 11.0 (1.9) μM; kcat (purified protein [8]): 18 s⁻¹; kcat/Km (purified protein [8]): 1.6e+06 M⁻¹ s⁻¹; Km (purified protein [9]): 1.2 (0.2) μM; kcat (purified protein [9]): 15 s⁻¹; kcat/Km (purified protein [9]): 1.25e+07 M⁻¹ s⁻¹

B4: BaiE (bile acid 7α-dehydratase) from Clostridium scindens VPI12708 (enzyme, UniProt P19412 1-166, looked up)
chain: MTLEERVEALEKELQEMKDIEAIKELKGKYFRCLDGKMWDELETTLSPNIVTSYSNGKLVFHSPKEVTDYLKSSMPKEEISMHMGHTPEITIDSETTATGRWYLEDRLIFTDGKYKDVGINGGAFYTDKYEKIDGQWYILETGYVRIYEEHFMRDPKIHITMNMHK
Question: What does the source list for B4?
Answer: Km (purified protein [8]): 9.9 (2.1) μM; kcat (purified protein [8]): 24 s⁻¹; kcat/Km (purified protein [8]): 2.4e+06 M⁻¹ s⁻¹; Km (purified protein [9]): 4.0 (0.56) μM; kcat (purified protein [9]): 98 s⁻¹; kcat/Km (purified protein [9]): 2.45e+07 M⁻¹ s⁻¹; stoichiometry N (SEC): 3

Source: publication PMC4755848 (Proteins, 2016)
